The values below come from patent US20230355708A1.

The target in experiment [1] is S1 (SARS-CoV-2) (UniProt P0DTC2). Put plainly: SPR.
The target in experiment [2] is Yu gp120. Put plainly: SPR.

In experiment [1], ACE2 registered a Kd of 2.4 nM.
Take P51G-CVN-HIS(OK): the dissociation constant (Kd) in experiment [2] stood at 22.8 nM.
